Drawing on patent US20250011397A1 (HOSPITAL FOR SICK CHILDREN, published 2025), this text covers Kd, koff and kon for one molecule.

The Kd is the constant that tells how readily two partners part at equilibrium. A high value points to a looser complex. What is called koff is a measure of how fast the partners let go of each other. Lower therefore signals slow dissociation. The term kon denotes a measure of how fast the partners come together. A lower kon goes with slower complex formation.

The target in assay [1] is T1, mouse FcRn (mouse, UniProt Q61559 22-297; P01887 21-119).
T1 construct: also called mFcRn
T1 sequence (looked up) 1: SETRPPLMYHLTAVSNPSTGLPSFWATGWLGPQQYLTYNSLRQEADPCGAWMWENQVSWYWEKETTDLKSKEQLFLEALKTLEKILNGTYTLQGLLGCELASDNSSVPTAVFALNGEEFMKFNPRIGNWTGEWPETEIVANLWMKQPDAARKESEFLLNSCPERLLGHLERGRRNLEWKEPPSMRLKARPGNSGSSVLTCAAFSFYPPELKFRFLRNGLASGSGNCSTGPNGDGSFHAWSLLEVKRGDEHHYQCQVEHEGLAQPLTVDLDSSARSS
T1 sequence (looked up) 2: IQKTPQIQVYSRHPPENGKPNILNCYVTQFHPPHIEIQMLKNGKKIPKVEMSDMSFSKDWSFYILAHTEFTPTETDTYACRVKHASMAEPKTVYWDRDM
The assay can be described thus: pH 5.6.

For a further assay, the target named is T2, mouse FcγRI (mouse, UniProt P26151 25-297).
T2 sequence (looked up): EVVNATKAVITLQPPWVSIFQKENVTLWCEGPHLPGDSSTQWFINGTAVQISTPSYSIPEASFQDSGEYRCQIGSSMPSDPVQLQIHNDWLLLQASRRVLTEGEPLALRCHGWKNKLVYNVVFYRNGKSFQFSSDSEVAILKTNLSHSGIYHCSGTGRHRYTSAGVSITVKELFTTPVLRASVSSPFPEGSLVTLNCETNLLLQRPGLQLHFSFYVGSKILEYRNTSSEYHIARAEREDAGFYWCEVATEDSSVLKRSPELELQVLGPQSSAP

The target in assay [2] is T1, mouse FcRn.

B1: HD37 (anti-hCD19) mouse IgG2a, parental IgG (antibody)
chain: DILLTQTPASLAVSLGQRATISCKASQSVDYDGDSYLNWYQQIPGQPPKLLIYDASNLVSGIPPRFSGSGSGTDFTLNIHPVEKVDAATYHCQQSTEDPWTFGGGTKLEIKRADAAPTVSIFPPSSEQLTSGGASVVCFLNNFYPKDINVKWKIDGSERQNGVLNSWTDQDSKDSTYSMSSTLTLTKDEYERHNSYTCEATHKTSTSPIVKSFNRNECGGSSGSGSGSTGTSSSGTGTSAGTTGTSASTSGSGSGGGGGSGGGGSAGGTATAGASSGSGSSGSSSSGGTGTGQVQLQQSGAELVRPGSSVKISCKASGYAFSSYWMNWVKQRPGQGLEWIGQIWPGDGDTNYNGKFKGKATLTADESSSTAYMQLSSLASEDSAVYFCARRETTTVGRYYYAMDYWGQGTSVTVSSSQSFPNVFPLVSCESPLSDKNLVAMGCLARDFLPSTISFTWNYQNNTEVIQGIRTFPTLRTGGKYLATSQVLLSPKSILEGSDEYLVCKIHYGGKNRDLHVPIPSKPCPPCKCPAPNLLGGPSVFIFPPKIKDVLMISLSPIVTCVVVDVSEDDPDVQISWFVNNVEVHTAQTQTHREDYNSTLRVVSALPIQHQDWMSGKEFKCKVNNKDLPAPIERTISKPKGSVRAPQVYVLPPPEEEMTKKQVTLTCMVTDFMPEDIYVEWTNNGKTELNYKNTEPVLDSDGSYFMYSKLRVEKKNWVERNSYSCSVVHEGLHNHHTTKSFSRTPGK
notes: also called mIgG2a control; HD37 single chain IgG2a
In the assay with mouse FcRn [1], B1 yielded a dissociation constant Kd of 1.06 nM and a koff of 0.000123 s⁻¹. In the assay with mouse FcγRI, this molecule showed a Kd of 8.63 nM, a koff of 0.000451 s⁻¹ and an association rate constant (kon) of 52200 M⁻¹ s⁻¹. Moreover, the association rate constant (kon) with mouse FcRn [2] amounted to 116000 M⁻¹ s⁻¹.
